Source: patent US20140179612A1

Target: αVβ3 integrin receptor on choroid endothelial cells (RF/6A)
Experiment: cell-based or functional assay

Row | Substance | IC50, MTT assay of RF/6A choroid endothelial cell proliferation induced by VEGF 165 (50 ng/ml) [nM] | inhibition of RF/6A cell proliferation at 15.6 nM (MTT assay) [%]
1 | transferrin-tumstatin protein (recombinant fusion, secreted from ARPE cells, histidine tagged) (from UniProt P02787 20-698; Q01955 1426-1670) | 5.97 | 84
2 | tumstatin protein (recombinant, secreted from ARPE cells, histidine tagged) (from UniProt Q01955 1426-1670) (ligand) | 186 | –
